# B1: alcohol dehydrogenase KpADH, wild type, SEQ ID No. 1 (Vanderwaltozyma polyspora DSM 70294) (protein)
# chain: MSVLISGASGYIAKHIVRVLLEQNYKVIGTVRSQDKADKLLKQYNNPNLSYEIVPEIANLDAFDDIFKKHGKEIKYVIHAASPVNFGAKDLEKDLVIPAINGTKNMFEAIKKYAPDTVERVVMTASYASIMTPHRQNDPTLTLDEETWNPVTEENAYENVFTAYCASKTFAEKEAWKFVKENSDAVKFKLTTIHPSFVFGPQNFDEDVTKKLNETCEIINGLLHAPFDTKVEKTHFSQFIDVRDVAKTHVLGFQKDELINQRLLLCNGAFSQQDIVNVFNEDFPELKGQFPPEDKDTDLNKGVTGCKIDNEKTKKLLAFEFTPFHKTIHDTVYQILHKEGRV
# B2: alcohol dehydrogenase KpADH mutant M2 (Y127C; parent SEQ ID No. 1) (Vanderwaltozyma polyspora DSM 70294; Y127C) (protein)
# chain: MSVLISGASGYIAKHIVRVLLEQNYKVIGTVRSQDKADKLLKQYNNPNLSYEIVPEIANLDAFDDIFKKHGKEIKYVIHAASPVNFGAKDLEKDLVIPAINGTKNMFEAIKKYAPDTVERVVMTASCASIMTPHRQNDPTLTLDEETWNPVTEENAYENVFTAYCASKTFAEKEAWKFVKENSDAVKFKLTTIHPSFVFGPQNFDEDVTKKLNETCEIINGLLHAPFDTKVEKTHFSQFIDVRDVAKTHVLGFQKDELINQRLLLCNGAFSQQDIVNVFNEDFPELKGQFPPEDKDTDLNKGVTGCKIDNEKTKKLLAFEFTPFHKTIHDTVYQILHKEGRV
# B3: alcohol dehydrogenase KpADH mutant M1 (V84I; parent SEQ ID No. 1) (Vanderwaltozyma polyspora DSM 70294; V84I) (protein)
# chain: MSVLISGASGYIAKHIVRVLLEQNYKVIGTVRSQDKADKLLKQYNNPNLSYEIVPEIANLDAFDDIFKKHGKEIKYVIHAASPINFGAKDLEKDLVIPAINGTKNMFEAIKKYAPDTVERVVMTASYASIMTPHRQNDPTLTLDEETWNPVTEENAYENVFTAYCASKTFAEKEAWKFVKENSDAVKFKLTTIHPSFVFGPQNFDEDVTKKLNETCEIINGLLHAPFDTKVEKTHFSQFIDVRDVAKTHVLGFQKDELINQRLLLCNGAFSQQDIVNVFNEDFPELKGQFPPEDKDTDLNKGVTGCKIDNEKTKKLLAFEFTPFHKTIHDTVYQILHKEGRV
# B4: alcohol dehydrogenase KpADH mutant M3 (Y127M; parent SEQ ID No. 1) (Vanderwaltozyma polyspora DSM 70294; Y127M) (protein)
# chain: MSVLISGASGYIAKHIVRVLLEQNYKVIGTVRSQDKADKLLKQYNNPNLSYEIVPEIANLDAFDDIFKKHGKEIKYVIHAASPVNFGAKDLEKDLVIPAINGTKNMFEAIKKYAPDTVERVVMTASMASIMTPHRQNDPTLTLDEETWNPVTEENAYENVFTAYCASKTFAEKEAWKFVKENSDAVKFKLTTIHPSFVFGPQNFDEDVTKKLNETCEIINGLLHAPFDTKVEKTHFSQFIDVRDVAKTHVLGFQKDELINQRLLLCNGAFSQQDIVNVFNEDFPELKGQFPPEDKDTDLNKGVTGCKIDNEKTKKLLAFEFTPFHKTIHDTVYQILHKEGRV
# B5: alcohol dehydrogenase KpADH mutant M4 (V84I/Y127C; parent SEQ ID No. 1) (Vanderwaltozyma polyspora DSM 70294; V84I/Y127C) (protein)
# chain: MSVLISGASGYIAKHIVRVLLEQNYKVIGTVRSQDKADKLLKQYNNPNLSYEIVPEIANLDAFDDIFKKHGKEIKYVIHAASPINFGAKDLEKDLVIPAINGTKNMFEAIKKYAPDTVERVVMTASCASIMTPHRQNDPTLTLDEETWNPVTEENAYENVFTAYCASKTFAEKEAWKFVKENSDAVKFKLTTIHPSFVFGPQNFDEDVTKKLNETCEIINGLLHAPFDTKVEKTHFSQFIDVRDVAKTHVLGFQKDELINQRLLLCNGAFSQQDIVNVFNEDFPELKGQFPPEDKDTDLNKGVTGCKIDNEKTKKLLAFEFTPFHKTIHDTVYQILHKEGRV
# B6: alcohol dehydrogenase KpADH mutant M5 (V84I/Y127M; parent SEQ ID No. 1) (Vanderwaltozyma polyspora DSM 70294; V84I/Y127M) (protein)
# chain: MSVLISGASGYIAKHIVRVLLEQNYKVIGTVRSQDKADKLLKQYNNPNLSYEIVPEIANLDAFDDIFKKHGKEIKYVIHAASPINFGAKDLEKDLVIPAINGTKNMFEAIKKYAPDTVERVVMTASMASIMTPHRQNDPTLTLDEETWNPVTEENAYENVFTAYCASKTFAEKEAWKFVKENSDAVKFKLTTIHPSFVFGPQNFDEDVTKKLNETCEIINGLLHAPFDTKVEKTHFSQFIDVRDVAKTHVLGFQKDELINQRLLLCNGAFSQQDIVNVFNEDFPELKGQFPPEDKDTDLNKGVTGCKIDNEKTKKLLAFEFTPFHKTIHDTVYQILHKEGRV
# Columns and labels:
# OCCCCO = test: purified protein, by the assay type; settings: Gly-NaOH pH 9.5, 30° C.
# [1] = substrate: OCCCCCO; test: Kinetic analysis of wild-type KpADH toward diol co-substrates; assay type: biochemical; settings: other: wild-type KpADH, 1 mM NADP+, Gly-NaOH pH 9.5, 30° C.
# Method: (§1) Changes in absorbance at 340 nm are measured.
# (§2) The enzyme activity is calculated using the following formula: Enzyme activity (U)=EW×V×10^3/(6220×I);
# (§3) In the formula, EW is the change in absorbance at 340 nm in 1 min; V is the volume of the reaction solution in mL; 6220 is the molar extinction coefficient of NAD(P)H in L/(mol·cm); I is optical distance in cm.
# (§4) One unit of activity (U) corresponds to the amount of enzyme required for the catalytic oxidation of 1 μmol NADP^+ per minute under the above conditions.
# (§5) Kinetic measurement is conducted according to the enzyme activity assay, with 10 μL of alcohol substrates of different concentrations, 1 mM NADP^+, 10 μL of enzymes of appropriate concentrations, 170 μL of glycine-sodium hydroxide buffer at pH 9.5, with each sample in triplicate. […] The calculation formulas are as follows: […]
# (§6) The Vmax and Km values can be calculated from the intercepts of the double reciprocal plot on the X and Y axes;
# (§7) The kcat value can be further calculated according to the formula.
# (§8) The activity of KpADH under different substrate concentrations and cofactor concentrations was measured, and a double reciprocal plot was made according to the reciprocals of the activity and substrate concentration. The kinetic parameters were calculated.
# (§9) The activity of KpADH under different substrate concentrations and cofactor concentrations was measured, and a double reciprocal plots were made according to the reciprocals of the activity and substrate concentration. The kinetic parameters were calculated.
# [2] = substrate: OCCCCO; test: purified protein, by the assay type; settings: other: wild-type KpADH, 1 mM NADP+, Gly-NaOH pH 9.5, 30° C.
# [3] = substrate: OCCCCCCO; test: Kinetic analysis of KpADH mutant M2 toward diol co-substrates; assay type: biochemical; settings: other: mutant M2, 1 mM NADP+, Gly-NaOH pH 9.5, 30° C.
# Method: (§10) M2 is obtained by mutating tyrosine at position 127 into cysteine in alcohol dehydrogenase having an original amino acid sequence as set forth in SEQ ID No. 1;
# as §1, §2, §3, §4, §5, §6, §7, §8, §9
# [4] = substrate: OCCCCCO; test: as above; assay type: biochemical; settings: other: mutant M2, 1 mM NADP+, Gly-NaOH pH 9.5, 30° C.
# Method: as §10, §1, §2, §3, §4, §5, §6, §7, §8, §9
# [5] = substrate: OCCCCCCO; test: Kinetic analysis of KpADH mutant M1 toward diol co-substrates; assay type: biochemical; settings: other: mutant M1, 1 mM NADP+, Gly-NaOH pH 9.5, 30° C.
# Method: (§11) M1 is obtained by mutating valine at position 84 into isoleucine in alcohol dehydrogenase having an original amino acid sequence as set forth in SEQ ID No. 1;
# as §1, §2, §3, §4, §5, §6, §7, §8, §9
# [6] = substrate: OCCCCCO; test: as above; assay type: biochemical; settings: other: mutant M1, 1 mM NADP+, Gly-NaOH pH 9.5, 30° C.
# Method: as §11, §1, §2, §3, §4, §5, §6, §7, §8, §9
# [7] = substrate: OCCCCCCO; test: Kinetic analysis of KpADH mutant M3 toward diol co-substrates; assay type: biochemical; settings: other: mutant M3, 1 mM NADP+, Gly-NaOH pH 9.5, 30° C.
# Method: (§12) M3 is obtained by mutating tyrosine at position 127 into methionine in alcohol dehydrogenase having an original amino acid sequence as set forth in SEQ ID No. 1;
# as §1, §2, §3, §4, §5, §6, §7, §8, §9
# [8] = substrate: OCCCCCO; test: as above; assay type: biochemical; settings: other: mutant M3, 1 mM NADP+, Gly-NaOH pH 9.5, 30° C.
# Method: as §12, §1, §2, §3, §4, §5, §6, §7, §8, §9
# [9] = substrate: OCCCCCCO; test: Kinetic analysis of KpADH mutant M4 toward diol co-substrates; assay type: biochemical; settings: other: mutant M4, 1 mM NADP+, Gly-NaOH pH 9.5, 30° C.
# Method: (§13) M4 is obtained by mutating valine at position 84 into isoleucine and tyrosine at position 127 into cysteine in alcohol dehydrogenase having an original amino acid sequence as set forth in SEQ ID No. 1;
# as §1, §2, §3, §4, §5, §6, §7, §8, §9
# [10] = substrate: OCCCCCO; test: as above; assay type: biochemical; settings: other: mutant M4, 1 mM NADP+, Gly-NaOH pH 9.5, 30° C.
# Method: as §13, §1, §2, §3, §4, §5, §6, §7, §8, §9
# [11] = substrate: OCCCCCCO; test: Kinetic analysis of KpADH mutant M5 toward diol co-substrates; assay type: biochemical; settings: other: mutant M5, 1 mM NADP+, Gly-NaOH pH 9.5, 30° C.
# Method: (§14) the M5 is obtained by mutating valine at position 84 into isoleucine and tyrosine at position 127 into methionine in alcohol dehydrogenase having an original amino acid sequence as set forth in SEQ ID No. 1.
# as §1, §2, §3, §4, §5, §6, §7, §8, §9
# [12] = substrate: OCCCCCO; test: as above; assay type: biochemical; settings: other: mutant M5, 1 mM NADP+, Gly-NaOH pH 9.5, 30° C.
# Method: as §14, §1, §2, §3, §4, §5, §6, §7, §8, §9
molecule,measurement,setting,value
alcohol dehydrogenase KpADH mutant M2 (Y127C; parent SEQ ID No. 1) (Vanderwaltozyma polyspora DSM 70294; Y127C),Km,"OCCCCO; other: mutant M2, 1 mM NADP+",38.1 ± 1.9 mM
same,kcat,"OCCCCO; other: mutant M2, 1 mM NADP+",0.463 s⁻¹
same,kcat/Km,"OCCCCO; other: mutant M2, 1 mM NADP+",12.2 M⁻¹ s⁻¹
alcohol dehydrogenase KpADH mutant M4 (V84I/Y127C; parent SEQ ID No. 1) (Vanderwaltozyma polyspora DSM 70294; V84I/Y127C),Km,"OCCCCO; other: mutant M4, 1 mM NADP+",30.4 ± 1.3 mM
same,kcat,"OCCCCO; other: mutant M4, 1 mM NADP+",0.652 s⁻¹
same,kcat/Km,"OCCCCO; other: mutant M4, 1 mM NADP+",21.4 M⁻¹ s⁻¹
alcohol dehydrogenase KpADH mutant M5 (V84I/Y127M; parent SEQ ID No. 1) (Vanderwaltozyma polyspora DSM 70294; V84I/Y127M),Km,"OCCCCO; other: mutant M5, 1 mM NADP+",11.3 ± 0.8 mM
same,kcat,"OCCCCO; other: mutant M5, 1 mM NADP+",0.378 s⁻¹
same,kcat/Km,"OCCCCO; other: mutant M5, 1 mM NADP+",33.5 M⁻¹ s⁻¹
alcohol dehydrogenase KpADH mutant M3 (Y127M; parent SEQ ID No. 1) (Vanderwaltozyma polyspora DSM 70294; Y127M),Km,"OCCCCO; other: mutant M3, 1 mM NADP+",12.1 ± 0.9 mM
same,kcat,"OCCCCO; other: mutant M3, 1 mM NADP+",0.28 s⁻¹
same,kcat/Km,"OCCCCO; other: mutant M3, 1 mM NADP+",23.2 M⁻¹ s⁻¹
B1,Km,[1],74.4 ± 2.2 mM
same,kcat,[1],0.928 ± 0.0167 s⁻¹
same,kcat/Km,[1],12.5 M⁻¹ s⁻¹
same,Km,[2],75.6 ± 0.4 mM
same,kcat,[2],0.173 s⁻¹
same,kcat/Km,[2],2.28 M⁻¹ s⁻¹
B2,Km,[3],31.8 ± 1.7 mM
same,kcat,[3],0.603 ± 0.0367 s⁻¹
same,kcat/Km,[3],18.97 M⁻¹ s⁻¹
same,Km,[4],63.5 ± 0.1 mM
same,kcat,[4],0.418 ± 0.015 s⁻¹
same,kcat/Km,[4],6.6 M⁻¹ s⁻¹
B3,Km,[5],12.3 ± 0.7 mM
same,kcat,[5],1.08 ± 0.0283 s⁻¹
same,kcat/Km,[5],87.53 M⁻¹ s⁻¹
same,Km,[6],42.5 ± 1.5 mM
same,kcat,[6],0.852 ± 0.013 s⁻¹
same,kcat/Km,[6],20.03 M⁻¹ s⁻¹
B4,Km,[7],6.48 ± 0.45 mM
same,kcat,[7],0.658 ± 0.0317 s⁻¹
same,kcat/Km,[7],101.6 M⁻¹ s⁻¹
same,Km,[8],14.3 ± 0.9 mM
same,kcat,[8],0.777 ± 0.0283 s⁻¹
same,kcat/Km,[8],54.48 M⁻¹ s⁻¹
B5,Km,[9],12.9 ± 1.3 mM
same,kcat,[9],1.64 ± 0.0417 s⁻¹
same,kcat/Km,[9],127.2 M⁻¹ s⁻¹
same,Km,[10],16.3 ± 0.8 mM
same,kcat,[10],0.413 ± 0.0183 s⁻¹
same,kcat/Km,[10],25.35 M⁻¹ s⁻¹
B6,Km,[11],6.52 ± 1.0 mM
same,kcat,[11],1.25 ± 0.035 s⁻¹
same,kcat/Km,[11],200.53 M⁻¹ s⁻¹
same,Km,[12],8.21 ± 0.22 mM
same,kcat,[12],0.322 ± 0.015 s⁻¹
same,kcat/Km,[12],39.22 M⁻¹ s⁻¹

# — patent publication US11162124B2, “Alcohol dehydrogenase mutant and application thereof in cofactor regeneration” (Jiangnan University, priority 2018, dated 2021)
